Values quoted from earlier work as cited in article PMC12609503.

Tests used:
[1] = target: GnRH receptor (pituitary membrane) (Rattus norvegicus) (UniProt P30969); test: radioligand saturation binding
[2] = target: GnRH receptor (LN-CaP cells) (Homo sapiens) (UniProt P30968); test: cell binding assay
Chain of UniProt P30968 (P30968 whole entry): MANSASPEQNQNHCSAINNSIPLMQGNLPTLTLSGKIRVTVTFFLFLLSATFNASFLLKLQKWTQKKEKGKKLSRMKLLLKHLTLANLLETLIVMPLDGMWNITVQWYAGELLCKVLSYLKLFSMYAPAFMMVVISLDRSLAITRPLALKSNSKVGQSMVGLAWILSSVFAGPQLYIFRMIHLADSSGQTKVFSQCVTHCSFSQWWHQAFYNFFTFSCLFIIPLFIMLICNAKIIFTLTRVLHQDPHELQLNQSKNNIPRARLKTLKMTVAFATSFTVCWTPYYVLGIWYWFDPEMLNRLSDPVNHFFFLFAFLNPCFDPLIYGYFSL

Chain of UniProt P30969 (P30969 whole entry): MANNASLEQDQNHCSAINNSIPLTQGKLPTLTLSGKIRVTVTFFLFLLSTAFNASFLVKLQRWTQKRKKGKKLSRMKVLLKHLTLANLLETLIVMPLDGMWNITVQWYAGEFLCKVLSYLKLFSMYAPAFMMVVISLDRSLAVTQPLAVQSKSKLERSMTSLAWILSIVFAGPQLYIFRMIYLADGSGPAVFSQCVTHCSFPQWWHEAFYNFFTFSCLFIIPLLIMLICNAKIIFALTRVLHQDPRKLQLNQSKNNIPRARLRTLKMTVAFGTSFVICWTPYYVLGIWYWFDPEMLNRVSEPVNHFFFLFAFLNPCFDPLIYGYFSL

| Substance | Kd [1] | Kd [2] |
| --- | --- | --- |
| 125I-LHRH (from UniProt P01148) | 0.435 nM | – |
| 99mTc-HYNIC-GABA-DLys6-GnRH (from UniProt P01148) | – | 89 nM |
| 99mTc-HYNIC-Ahx-DLys6-GnRH (from UniProt P01148) | – | 42 nM |
